Experimental data published in article PMC8293630.

Columns and labels:
[1] = target: wtc51 TCRαβ (1G4 variant with four mutations in βCDR2), β-HA, in J76 cells
[2] = target: 1G4 TCRαβ with βA291 (αWT, β Y291A), β-HA and α-FLAG; experiment: co-IP; DDM stability assay (DSA): J76 cells lysed in 0.5% DDM, 150 mM NaCl, 20 mM Tris pH 8.0, 30 min on ice; post-nuclear lysate on anti-HA agarose beads (β-HA) 1 h at 4°C; quantitative immunoblot of β (HA), ε, γ, δ, ζ; ratios normalised to WT; also after A770041 treatment of the cells
[3] = target: wtc51 TCRαβ (1G4 variant with four mutations in βCDR2), β-HA, in J76 cells; experiment: pull-down; ζ recovered with ligand-engaged TCR: (9V-A2)4-His bound to intact cells (37°C or 0°C, ± A770041), 0.5% DDM lysis, capture on HisPur cobalt resin; ζ/β2 compared with non-stimulated anti-HA pull-down (= 1)
[4] = target: QM-α TCRαβ (1G4 variant with mutations in αCDR2, βCDR2 and βCDR3), β-HA, in J76 cells; experiment: as above
[5] = target: 1G4 TCRαβ wild type (HLA-A2-restricted TCR specific for NY-ESO-1 157-165), β-HA and α-FLAG; experiment: co-IP; DDM stability assay (DSA): J76 cells lysed in 0.5% DDM, 150 mM NaCl, 20 mM Tris pH 8.0, 30 min on ice; post-nuclear lysate on anti-HA agarose beads (β-HA) 1 h at 4°C; quantitative immunoblot of β (HA), ε, γ, δ, ζ; ratios normalised to WT; also after A770041 treatment of the cells
[6] = target: 1G4 TCRαβ wild type (HLA-A2-restricted TCR specific for NY-ESO-1 157-165), β-HA and α-FLAG; settings: scale: nM
[7] = target: 1G4 TCRαβ with βA291 (αWT, β Y291A), β-HA and α-FLAG; settings: scale: nM

**Q.** For “soluble monovalent 9V-HLA-A2 (biotinylated pMHC monomer) (from UniProt P61769 21-119) (peptide-MHC)”, which pErk immunoblot of J76 wtc51 cells, dose response of sm-9V-A2 (Figure S7F) [1] is on record?
**A.** The pErk immunoblot of J76 wtc51 cells, dose response of sm-9V-A2 (Figure S7F) was 3 nM.

**Q.** Which results are given for “CD3ζ (ζζ), endogenous in J76 Jurkat cells (from UniProt P20963-1 22-164) (natural protein)”?
**A.** ζ/β2 ratio (1G4-WT = 1) (ratio to 1G4-WT) [2]: 0.2; ζ/β2 ratio of liganded against unliganded TCR (= 1) (ratio to unliganded wtc51) [3]: 0.5; reduction of the ζ/β2 ratio of liganded against unliganded TCR [4]: 40%

**Q.** For “CD3ζ I41A expressed in J76-1G4WT-ζKO cells (from UniProt P20963-1 22-164) (natural protein)”, which ζ/β2 ratio (ζWT = 1) [5] is on record?
**A.** Its ζ/β2 ratio (ζWT = 1) is 0.25 ratio to ζWT.

**Q.** Which ζ/β2 ratio (ζWT = 1) [5] does the source give for “CD3ζ I38A expressed in J76-1G4WT-ζKO cells (from UniProt P20963-1 22-164) (natural protein)” here?
**A.** The ζ/β2 ratio (ζWT = 1) was 0.05 ratio to ζWT.

**Q.** “CD3δ, endogenous in J76 Jurkat cells (from UniProt P04234 22-171) (natural protein)” was tested. Which reduction of recovery against 1G4-WT [2] did it give?
**A.** The reduction of recovery against 1G4-WT was 10%.

**Q.** “CD3ε, endogenous in J76 Jurkat cells (from UniProt P07766 23-207) (natural protein)” was tested. Which ε/βT ratio (1G4-WT = 1) (ratio to 1G4-WT) [2] did it give?
**A.** Its ε/βT ratio (1G4-WT = 1) (ratio to 1G4-WT) is 0.5.

**Q.** With “CD3γ, endogenous in J76 Jurkat cells (from UniProt P09693 23-182) (natural protein)” as the substance, how does the reduction of recovery against 1G4-WT [2] read?
**A.** The reduction of recovery against 1G4-WT was 40%.

**Q.** Which pErk MFI (flow cytometry) of CD8- J76 cells against (6V-A2)4 nM, EC50 of the non-linear regression fit [6] does the source give for “6V-HLA-A2 tetramer on phycoerythrin-conjugated streptavidin (from UniProt P61769 21-119) (peptide-MHC)” here?
**A.** Its pErk MFI (flow cytometry) of CD8- J76 cells against (6V-A2)4 nM, EC50 of the non-linear regression fit is 19.5.

**Q.** What about the pErk MFI (flow cytometry) of CD8- J76 cells against (6V-A2)4 nM, EC50 of the non-linear regression fit [7] of the same substance?
**A.** Its pErk MFI (flow cytometry) of CD8- J76 cells against (6V-A2)4 nM, EC50 of the non-linear regression fit is 19.
